Values quoted from earlier work in article PMC11139829.
Values joined by “and” are separate entries in the source; they are usually repeats but may differ in a detail not shown here. Equal values may be shown once. Read-outs that look alike come from different tables or passages of the source.

Assays:
[1] = molecular target: β-clamp (Escherichia coli) (UniProt P0A988); experiment: SPR
[2] = molecular target: β-clamp (Escherichia coli) (UniProt P0A988); experiment: Fluorescence
[3] = molecular target: β-clamp (Escherichia coli) (UniProt P0A988); experiment: ITC
[4] = molecular target: β-clamp (Escherichia coli) (UniProt P0A988); experiment: ITC; remark: listed apart in the source
[5] = molecular target: β-clamp (Escherichia coli) (UniProt P0A988); experiment: ITC; remark: listed apart in the source
[6] = molecular target: β-clamp (Escherichia coli) (UniProt P0A988); experiment: SEC
[7] = molecular target: β-clamp (Escherichia coli) (UniProt P0A988)

Pol III α, sequence (P10443 whole entry): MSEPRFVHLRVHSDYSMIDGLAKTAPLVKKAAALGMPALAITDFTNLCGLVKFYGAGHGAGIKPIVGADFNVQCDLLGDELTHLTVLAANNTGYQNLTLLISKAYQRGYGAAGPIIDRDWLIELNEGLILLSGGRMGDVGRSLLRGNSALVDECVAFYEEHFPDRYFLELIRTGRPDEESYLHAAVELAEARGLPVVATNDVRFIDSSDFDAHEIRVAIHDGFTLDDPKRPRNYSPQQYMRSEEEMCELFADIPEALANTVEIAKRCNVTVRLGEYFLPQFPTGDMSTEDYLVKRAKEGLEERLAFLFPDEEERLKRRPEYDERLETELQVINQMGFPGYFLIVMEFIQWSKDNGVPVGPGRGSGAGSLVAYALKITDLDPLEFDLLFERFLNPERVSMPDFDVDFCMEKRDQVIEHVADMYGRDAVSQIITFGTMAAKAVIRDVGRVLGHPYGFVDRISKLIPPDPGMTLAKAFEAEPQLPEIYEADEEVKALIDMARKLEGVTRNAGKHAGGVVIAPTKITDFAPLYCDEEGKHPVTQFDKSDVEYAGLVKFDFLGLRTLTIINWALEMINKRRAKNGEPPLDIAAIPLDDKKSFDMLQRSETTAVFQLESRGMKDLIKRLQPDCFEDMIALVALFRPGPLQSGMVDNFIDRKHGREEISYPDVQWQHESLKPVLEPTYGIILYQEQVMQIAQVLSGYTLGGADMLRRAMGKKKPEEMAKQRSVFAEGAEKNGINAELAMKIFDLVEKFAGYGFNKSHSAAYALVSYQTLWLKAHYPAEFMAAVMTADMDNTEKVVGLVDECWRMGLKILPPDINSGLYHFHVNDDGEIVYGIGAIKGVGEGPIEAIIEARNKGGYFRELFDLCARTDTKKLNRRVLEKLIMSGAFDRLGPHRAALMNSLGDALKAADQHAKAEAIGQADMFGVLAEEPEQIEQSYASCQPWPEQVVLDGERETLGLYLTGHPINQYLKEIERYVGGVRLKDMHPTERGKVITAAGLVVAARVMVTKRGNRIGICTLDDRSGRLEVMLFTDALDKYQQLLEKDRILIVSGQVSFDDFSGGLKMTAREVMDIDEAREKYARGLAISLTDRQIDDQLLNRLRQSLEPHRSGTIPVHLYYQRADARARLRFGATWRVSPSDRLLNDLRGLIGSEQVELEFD
UniProt P0A988, sequence (P0A988 whole entry): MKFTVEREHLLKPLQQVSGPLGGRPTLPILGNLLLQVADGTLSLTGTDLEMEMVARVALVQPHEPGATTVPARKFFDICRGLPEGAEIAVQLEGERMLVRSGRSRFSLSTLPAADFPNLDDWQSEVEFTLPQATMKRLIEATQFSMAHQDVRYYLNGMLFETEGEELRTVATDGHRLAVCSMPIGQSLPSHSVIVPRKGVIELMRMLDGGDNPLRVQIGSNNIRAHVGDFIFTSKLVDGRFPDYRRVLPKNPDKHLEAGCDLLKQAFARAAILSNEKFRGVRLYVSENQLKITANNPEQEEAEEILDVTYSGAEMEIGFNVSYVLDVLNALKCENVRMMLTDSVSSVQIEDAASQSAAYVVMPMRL

Kd [1]	Kd [2]	Kd [4]	Substance	Kd [6]	also measured
210 µM			Pol III ε peptide		
	3.2 µM and 3 µM	1.42 µM	Pol III α C-terminal CBM peptide		Kd [3]: 3.95 µM; Kd [5]: 3.06 µM
0.0316 µM			Pol II (from UniProt P21189)		Kd [7]: 0.12 µM
	0.051 µM and 0.05 µM		Pol III core (from UniProt P10443)	< 0.005 µM	

The next lines start with the substance.

Substance	Kd [1]	Kd [2]	Kd [4]	Kd [6]	also measured
Pol III α internal CBM peptide	2.7 µM		> 15 µM		
Pol III α + ε (from UniProt P10443)				0.3 µM	
Pol II CBM peptide		3.5 µM	1.7 µM		
Pol III α (from UniProt P10443)	0.108 µM and 0.8 µM	0.11 µM	1.5 µM	1.2 µM	
